From patent US20180112002A1 (University of California, published 2018)
Each block holds one binder with its values, some of them ahead of it.

B1: CD19 (receptor, human, UniProt P15391 20-556, looked up)
chain: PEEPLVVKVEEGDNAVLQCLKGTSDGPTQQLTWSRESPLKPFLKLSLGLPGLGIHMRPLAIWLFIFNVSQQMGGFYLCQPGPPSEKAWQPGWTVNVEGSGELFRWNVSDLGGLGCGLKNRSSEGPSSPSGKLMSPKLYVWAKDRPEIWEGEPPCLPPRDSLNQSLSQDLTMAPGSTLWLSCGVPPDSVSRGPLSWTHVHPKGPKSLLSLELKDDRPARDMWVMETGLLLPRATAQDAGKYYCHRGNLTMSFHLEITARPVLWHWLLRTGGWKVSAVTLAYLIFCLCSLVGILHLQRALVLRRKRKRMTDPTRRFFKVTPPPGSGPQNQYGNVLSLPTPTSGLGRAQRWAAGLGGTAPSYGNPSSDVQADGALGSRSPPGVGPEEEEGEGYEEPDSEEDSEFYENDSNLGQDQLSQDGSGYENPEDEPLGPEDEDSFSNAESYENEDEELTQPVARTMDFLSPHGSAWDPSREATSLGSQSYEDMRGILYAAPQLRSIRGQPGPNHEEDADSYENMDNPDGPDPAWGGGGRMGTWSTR
notes: whole, on cells; Negative control for co-localization

What was measured:
[1] = target: T1, ROR1 protein (tyrosine-protein kinase transmembrane receptor ROR1) (human, UniProt Q01973 30-937); assay: fluorescence confocal microscopy, CLL cells
T1 construct: Endogenous ROR1 of CLL patients' cells, and full-length ROR1 expressed from a vector in the human CLL line MEC1 (MEC1-ROR1); also called NTRKR1; full-length ROR1
Protocol: (§1) FIG. 9. Negative control for co-localization analysis by confocal microscopy. CLL cells were stained with anti-CD5-Alexa-647 and anti-CD19-Alexa-488; anti-ROR1-Alexa-647 and anti-CD19-Alexa-488; or anti-CD5-Alexa-647 and anti-ROR2-Alexa-488 for evaluation by confocal microscopy (Scale bar: 2 μm). There is no co-localization between CD5 and CD19, ROR1 and CD19, or CD5 and ROR2.
(§2) However, it was difficult to detect co-localization of ROR1 with ROR2 in cultured CLL cells unless they were treated with exogenous Wnt5a (FIG. 3b).

[2] = target: T2, ROR2 protein (tyrosine-protein kinase transmembrane receptor ROR2) (human, UniProt Q01974 34-943); assay: fluorescence confocal microscopy, Wnt5a-treated CLL cells
T2 construct: Endogenous ROR2 of CLL cells, normal B cells and MEC1 cells; also called NTRKR2

CD19 = target: B1; assay: fluorescence confocal microscopy, CLL cells
Protocol: as §1, §2

[3] = target: T2, ROR2 protein (tyrosine-protein kinase …); assay: fluorescence confocal microscopy, CLL cells
Protocol: as §1, §2

T2 sequence (Q01974 34-943 limits assumed): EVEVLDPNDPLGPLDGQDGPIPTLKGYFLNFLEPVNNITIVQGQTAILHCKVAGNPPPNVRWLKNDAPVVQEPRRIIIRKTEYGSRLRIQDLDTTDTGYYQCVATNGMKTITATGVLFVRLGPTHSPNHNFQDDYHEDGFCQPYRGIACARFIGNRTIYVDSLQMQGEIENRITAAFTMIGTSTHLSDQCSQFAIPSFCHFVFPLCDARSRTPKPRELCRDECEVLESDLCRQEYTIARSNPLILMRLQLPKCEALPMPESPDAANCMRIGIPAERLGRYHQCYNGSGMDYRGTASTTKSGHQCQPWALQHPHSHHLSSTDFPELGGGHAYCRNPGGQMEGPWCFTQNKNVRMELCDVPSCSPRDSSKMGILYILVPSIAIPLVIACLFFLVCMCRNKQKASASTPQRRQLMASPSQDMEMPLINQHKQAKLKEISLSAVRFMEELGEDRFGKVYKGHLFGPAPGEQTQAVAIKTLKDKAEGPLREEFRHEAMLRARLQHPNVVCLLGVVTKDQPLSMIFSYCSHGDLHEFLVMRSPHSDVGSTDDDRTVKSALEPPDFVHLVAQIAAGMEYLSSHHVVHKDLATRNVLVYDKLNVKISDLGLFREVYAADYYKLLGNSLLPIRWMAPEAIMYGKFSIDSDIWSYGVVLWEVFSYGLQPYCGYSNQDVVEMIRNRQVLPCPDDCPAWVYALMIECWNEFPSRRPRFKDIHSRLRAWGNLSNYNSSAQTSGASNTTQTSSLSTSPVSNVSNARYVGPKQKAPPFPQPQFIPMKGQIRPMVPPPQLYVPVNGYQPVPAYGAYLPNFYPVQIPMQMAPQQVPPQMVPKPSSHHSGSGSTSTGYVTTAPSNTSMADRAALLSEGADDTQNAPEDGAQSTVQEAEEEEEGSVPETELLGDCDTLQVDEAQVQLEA
T1 sequence (Q01973 30-937 limits assumed): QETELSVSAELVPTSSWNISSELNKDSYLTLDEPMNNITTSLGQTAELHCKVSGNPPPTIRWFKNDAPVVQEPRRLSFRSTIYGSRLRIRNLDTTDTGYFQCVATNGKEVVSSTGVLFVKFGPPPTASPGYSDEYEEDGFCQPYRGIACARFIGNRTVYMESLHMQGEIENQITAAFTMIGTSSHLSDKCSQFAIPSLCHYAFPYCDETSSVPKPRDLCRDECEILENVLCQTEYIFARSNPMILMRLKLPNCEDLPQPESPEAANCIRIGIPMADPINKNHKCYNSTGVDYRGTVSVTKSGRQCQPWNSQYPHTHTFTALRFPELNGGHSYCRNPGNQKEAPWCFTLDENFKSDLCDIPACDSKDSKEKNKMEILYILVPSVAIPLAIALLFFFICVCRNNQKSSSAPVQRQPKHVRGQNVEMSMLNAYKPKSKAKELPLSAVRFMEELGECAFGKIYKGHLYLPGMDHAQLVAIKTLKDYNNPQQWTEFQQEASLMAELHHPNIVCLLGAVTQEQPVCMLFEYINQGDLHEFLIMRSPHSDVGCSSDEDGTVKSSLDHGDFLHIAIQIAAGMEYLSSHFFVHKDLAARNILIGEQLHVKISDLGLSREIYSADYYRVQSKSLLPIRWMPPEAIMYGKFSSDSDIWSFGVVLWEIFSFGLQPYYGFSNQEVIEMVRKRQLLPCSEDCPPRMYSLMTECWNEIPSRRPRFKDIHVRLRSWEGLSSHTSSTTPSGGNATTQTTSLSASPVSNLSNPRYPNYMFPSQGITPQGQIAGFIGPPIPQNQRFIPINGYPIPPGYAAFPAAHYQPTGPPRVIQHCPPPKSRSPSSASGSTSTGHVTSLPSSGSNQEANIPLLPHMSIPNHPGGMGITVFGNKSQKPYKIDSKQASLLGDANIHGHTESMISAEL

Binder: B1
- binding result [1]: no binding

- binding result [2]: binds
B2: ARHGEF6 protein (Rho guanine nucleotide exchange factor 6) (other)
chain: MNPEEQIVTWLISLGVLESPKKTICDPEEFLKSSLKNGVVLCKLINRLMPGSVEKFCLDPQTEADCINNINDFLKGCATLQVEIFDPDDLYSGVNFSKVLSTLLAVNKATEDQLSERPCGRSSSLSAANTSQTNPQGAVSSTVSGLQRQSKTVEMTENGSHQLIVKARFNFKQTNEDELSVCKGDIIYVTRVEEGGWWEGTLNGRTGWFPSNYVREIKSSERPLSPKAVKGFETAPLTKNYYTVVLQNILDTEKEYAKELQSLLVTYLRPLQSNNNLSTVEVTSLLGNFEEVCTFQQTLCQALEECSKFPENQHKVGGCLLSLMPHFKSMYLAYCANHPSAVNVLTQHSDELEQFMENQGASSPGILILTTNLSKPFMRLEKYVTLLQELERHMEDTHPDHQDILKAIVAFKTLMGQCQDLRKRKQLELQILSEPIQAWEGEDIKNLGNVIFMSQVMVQYGACEEKEERYLMLFSNVLIMLSASPRMSGFIYQGKIPIAGTVVTRLDEIEGNDCTFEITGNTVERIVVHCNNNQDFQEWLEQLNRLIRGPASCSSLSKTSSSSCSAHSSFSSTGQPRGPLEPPQIIKPWSLSCLRPAPPLRPSAALGYKERMSYILKESSKSPKTMKKFLHKRKTERKPSEEEYVIRKSTAALEEDAQILKVIEAYCTSANFQQGHGSSTRKDSIPQVLLPEEEKLIIEETRSNGQTIMEEKSLVDTVYALKDEVRELKQENKRMKQCLEEELKSRRDLEKLVRRLLKQTDECIRGESSSKTSILP
notes: Endogenous protein of CLL and MEC1 cells

- binding result (CD19): no binding
- binding result [3]: no binding
B3: CD5 (receptor, human, UniProt P06127 25-495, looked up)
chain: RLSWYDPDFQARLTRSNSKCQGQLEVYLKDGWHMVCSQSWGRSSKQWEDPSQASKVCQRLNCGVPLSLGPFLVTYTPQSSIICYGQLGSFSNCSHSRNDMCHSLGLTCLEPQKTTPPTTRPPPTTTPEPTAPPRLQLVAQSGGQHCAGVVEFYSGSLGGTISYEAQDKTQDLENFLCNNLQCGSFLKHLPETEAGRAQDPGEPREHQPLPIQWKIQNSSCTSLEHCFRKIKPQKSGRVLALLCSGFQPKVQSRLVGGSSICEGTVEVRQGAQWAALCDSSSARSSLRWEEVCREQQCGSVNSYRVLDAGDPTSRGLFCPHQKLSQCHELWERNSYCKKVFVTCQDPNPAGLAAGTVASIILALVLLVVLLVVCGPLAYKKLVKKFRQKKQRQWIGPTGMNQNMSFHRNHTATVRSHAENPTASHVDNEYSQPPRNSHLSAYPALEGALHRSSMQPDNSSDSDYDLHGAQRL
notes: as for B1
